# Measurements as given in patent publication US20110256180A1 (CHILDREN S HOSPITAL AND RESEARCH CENTER AT OAKLAND, published 2011).
# Residue numbers refer to the chain shown, from its start. Names and notes keep the numbering of the source. Read-outs that look alike come from different tables or passages of the source.
# B1: fHbp ID 15 E241K mutant (other)
# chain: CSSGGGGSGGGGVAADIGAGLADALTAPLDHKDKGLKSLTLEDSISQNGTLTLSAQGAERTFKAGDKDNSLNTGKLKNDKISRFDFIRQIEVDGQLITLESGEFQVYKQSHSALTALQTEQVQDSEHSGKMVAKRQFRIGDIVGEHTSFGKLPKDVMATYRGTAFGSDDAGGKLTYTIDFAAKQGHGKIEHLKSPELNVDLAAADIKPDEKHHAVISGSVLYNQAEKGSYSLGIFGGQAQEVAGSAEVKTANGIRHIGLAAKQ
# B2: fHbp ID 15 S41P mutant (other)
# chain: B1 chain with S46P, K249E
# notes: also called Pep 15 S41P
# B3: fHbp chimera I R41S mutant (other)
# chain: CSSGGGGVAADIGAGLADALTAPLDHKDKGLQSLTLDQSVSKNEKLKLAAQGAEKTYGNGDSLNTGKLKNDKVSRFDFIRQIEVDGQLITLESGEFQVYKQSHSALTAFQTEQIQDSEHSGKMVAKRQFRIGDIAGEHTAFNQLPDGKAEYHGKAFSSDDAGGKLTYTIDFAAKQGHGKIEHLKTPEQNVELAAAELKADEKSHAVILGDTRYGSEEKGTYHLALFGDRAQEIAGSATVKIGEKVHEIGIAGKQ
# notes: Recombinant; also called R41S mutant of the fHbp chimera I
# B4: fHbp ID 28, wild-type (strain M1239, variant group 3, modular group II) (other)
# chain: CSSGGGGSGGGGVAADIGTGLADALTAPLDHKDKGLKSLTLEDSIPQNGTLTLSAQGAEKTFKAGDKDNSLNTGKLKNDKISRFDFVQKIEVDGQTITLASGEFQIYKQNHSAVVALQIEKINNPDKTDSLINQRSFLVSGLGGEHTAFNQLPGGKAEYHGKAFSSDDPNGRLHYSIDFTKKQGYGRIEHLKTLEQNVELAAAELKADEKSHAVILGDTRYGSEEKGTYHLALFGDRAQEIAGSATVKIGEKVHEIGIAGKQ
# notes: Recombinant; also called Pep28; peptide 28
# B5: fHbp ID 28 E218A mutant (other)
# chain: B4 chain with E225A
# notes: also called E218A (ID 28)
# B6: fHbp ID 28 D201A mutant (other)
# chain: B4 chain with D208A
# notes: also called D201A (ID 28)
# B7: fHbp ID 28 K245A mutant (other)
# chain: B4 chain with K252A
# B8: fHbp ID 28 E197A mutant (other)
# chain: B4 chain with E204A
# B9: fHbp ID 77, wild-type (strain 8047, variant group 2, modular group VI) (other)
# chain: CSSGGGGVAADIGARLADALTAPLDHKDKSLQSLTLDQSVRKNEKLKLAAQGAEKTYGNGDSLNTGKLKNDKVSRFDFIRQIEVDGQLITLESGEFQIYKQDHSAVVALQIEKINNPDKIDSLINQRSFLVSGLGGEHTAFNQLPDGKAEYHGKAFSSDDAGGKLTYTIDFAAKQGHGKIEHLKTPEQNVELAAAELKADEKSHAVILGDTRYGSEEKGTYHLALFGDRAQEIAGSATVKIGEKVHEIGIAGKQ
# notes: Recombinant; also called ID 77 (VI); wildtype fHbp ID 77
# B10: fHbp ID 77 K113A mutant (other)
# chain: B9 chain with K113A
# B11: fHbp ID 77 R41S/D121A double mutant (other)
# chain: B9 chain with R41S, D121A
# B12: fHbp ID 77 K113A/D121A double mutant (other)
# chain: B9 chain with K113A, D121A
# B13: fHbp ID 77 K119A mutant (other)
# chain: B9 chain with K119A
# B14: fHbp ID 77 R41S mutant (other)
# chain: B9 chain with R41S
# notes: also called R41S (ID 77)
# B15: fHbp ID 77 D121A mutant (other)
# chain: B9 chain with D121A
# B16: fHbp ID 22 R80A mutant (protein)
# chain: CSSGGGGVAADIGAGLADALTAPLDHKDKSLQSLTLDQSVRKNEKLKLAAQGAEKTYGNGDSLNTGKLKNDKVSRFDFIAQIEVDGQLITLESGEFQIYKQDHSAVVALQIEKINNPDKIDSLINQRSFLVSGLGGEHTAFNQLPSGKAEYHGKAFSSDDPNGRLHYSIDFTKKQGYGRIEHLKTPEQNVELASAELKADEKSHAVILGDTRYGGEEKGTYHLALFGDRAQEIAGSATVKIREKVHEIGIAGKQ
# B17: fHbp ID 22, wild-type (variant group 2, modular group III) (other)
# chain: B16 chain with A80R
# notes: Recombinant; also called ID 22 (III); WT ID 22
# B18: fHbp ID 22 D211A mutant (protein)
# chain: B16 chain with A80R, D210A
# B19: fHbp ID 22 G236I mutant (protein)
# chain: B16 chain with A80R, G235I
# B20: fHbp ID 22 E248A mutant (protein)
# chain: B16 chain with A80R, E247A
# B21: fHbp ID 22 T220A/H222A double mutant (protein)
# chain: B16 chain with A80R, T220A, H222A
# B22: fHbp ID 22 E218A mutant (protein)
# chain: B16 chain with A80R, E217A
# B23: fHbp ID 22 R41S mutant (other)
# chain: B16 chain with R41S, A80R
# notes: also called R41S (ID 22)
# B24: fHbp ID 22 E202A mutant (other)
# chain: B16 chain with A80R, E201A
# B25: fHbp ID 22 Q126A mutant (other)
# chain: B16 chain with A80R, Q126A
# B26: fHbp ID 22 Q38A mutant (other)
# chain: B16 chain with Q38A, A80R
# B27: fHbp ID 22 D201A mutant (other)
# chain: B16 chain with A80R, D200A
# notes: also called D201A (ID 22)
# B28: fHbp ID 22 A235G mutant (other)
# chain: B16 chain with A80R, A234G
# B29: fHbp ID 14 (natural variant, variant group 1, modular group I) (other)
# chain: CSSGGGGVAADIGAGLADALTAPLDHKDKSLQSLTLDQSVRKNEKLKLAAQGAEKTYGNGDSLNTGKLKNDKVSRFDFIRQIEVDGQLITLESGEFQVYKQSHSALTALQTEQEQDPEHSGKMVAKRRFKIGDIAGEHTSFDKLPKDVMATYRGTAFGSDDAGGKLTYTIDFAAKQGHGKIEHLKSPELNVELATAYIKPDEKHHAVISGSVLYNQDEKGSYSLGIFGGQAQEVAGSAEVETANGIHHIGLAAKQ
# notes: Recombinant
# Columns and labels:
# [1] = molecular target: human complement factor H (human) (UniProt P08603); experiment: ELISA, vs respective wildtype fHbp
# [2] = molecular target: T1, human complement factor H (human, UniProt P08603 19-1231); experiment: ELISA, vs respective wildtype fHbp
# T1 construct: also called human fH; fH
# [3] = molecular target: T1, human complement factor H; experiment: ELISA, fHbp on plate
# [4] = molecular target: T1, human complement factor H; experiment: ELISA, vs respective wildtype fHbp; remark: listed apart in the source
# human complement factor H (human), sequence (P08603 19-1231 limits assumed): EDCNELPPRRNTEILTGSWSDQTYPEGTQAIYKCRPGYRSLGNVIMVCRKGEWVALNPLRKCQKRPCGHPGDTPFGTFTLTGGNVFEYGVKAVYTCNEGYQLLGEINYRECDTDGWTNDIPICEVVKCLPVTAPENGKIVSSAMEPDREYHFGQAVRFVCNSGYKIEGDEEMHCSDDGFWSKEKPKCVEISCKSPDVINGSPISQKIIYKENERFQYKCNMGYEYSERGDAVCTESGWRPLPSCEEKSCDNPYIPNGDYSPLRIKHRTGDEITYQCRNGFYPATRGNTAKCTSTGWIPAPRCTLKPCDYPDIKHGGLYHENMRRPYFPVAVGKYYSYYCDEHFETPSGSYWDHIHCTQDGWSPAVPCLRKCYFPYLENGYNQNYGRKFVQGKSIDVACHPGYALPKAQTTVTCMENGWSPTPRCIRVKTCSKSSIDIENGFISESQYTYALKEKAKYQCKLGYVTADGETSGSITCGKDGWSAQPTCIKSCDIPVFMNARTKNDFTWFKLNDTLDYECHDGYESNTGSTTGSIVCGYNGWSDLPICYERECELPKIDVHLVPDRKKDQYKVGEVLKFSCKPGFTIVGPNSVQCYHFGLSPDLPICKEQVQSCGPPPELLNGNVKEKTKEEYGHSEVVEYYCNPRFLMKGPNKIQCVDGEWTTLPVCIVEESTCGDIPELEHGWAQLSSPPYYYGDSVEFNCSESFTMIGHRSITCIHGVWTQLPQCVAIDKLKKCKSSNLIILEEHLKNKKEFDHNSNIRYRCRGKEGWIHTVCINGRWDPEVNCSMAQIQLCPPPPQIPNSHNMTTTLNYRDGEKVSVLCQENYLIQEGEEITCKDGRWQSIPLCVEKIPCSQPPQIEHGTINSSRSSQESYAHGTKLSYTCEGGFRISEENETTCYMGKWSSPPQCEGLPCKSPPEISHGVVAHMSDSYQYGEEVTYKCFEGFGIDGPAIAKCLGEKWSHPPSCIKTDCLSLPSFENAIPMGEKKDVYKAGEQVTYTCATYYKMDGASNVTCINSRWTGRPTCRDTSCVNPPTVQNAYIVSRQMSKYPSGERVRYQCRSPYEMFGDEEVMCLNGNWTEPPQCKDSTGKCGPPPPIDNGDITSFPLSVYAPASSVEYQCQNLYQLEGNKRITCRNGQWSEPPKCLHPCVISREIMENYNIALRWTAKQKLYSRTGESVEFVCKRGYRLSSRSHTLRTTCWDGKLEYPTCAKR
# T1 sequence (P08603 19-1231 limits assumed): as above
molecule,measurement,setting,value
fHbp ID 74 R41S mutant,Fold-Decrease in fH binding,[1],> 50 fold
fHbp ID 9 R41S mutant,Fold-Decrease in fH binding,[1],> 50 fold
B1,Fold-Decrease in fH binding,[2],0 fold
same,fold effect on fH binding relative to wildtype fHbp,[3],< 2 fold
B2,binding result,[3],no binding
same,Fold-Decrease in fH binding,[4],> 50 fold
B3,binding result,[3],no binding
B4,binding result,[3],binds
B5,binding result,[3],binds
B6,binding result,[3],binds
B7,binding result,[3],binds
B8,binding result,[3],binds
B9,Fold-Decrease in fH binding,[4],0 fold
B10,Fold-Decrease in fH binding,[2],0 fold
B11,fold less binding to fH than wildtype fHbp ID 77,[3],~10 fold
same,Fold-Decrease in fH binding,[4],> 10 fold
B12,fold decreased binding of fH,[3],~10 fold
B13,Fold-Decrease in fH binding,[2],0 fold
same,fold increase in fH binding compared to wildtype fHbp ID 77,[3],~4 fold
B14,Fold-Decrease in fH binding,[2],0 fold
B15,Fold-Decrease in fH binding,[2],0 fold
same,fold decrease in fH binding compared with wildtype fHbp ID 77,[3],~4 fold
B16,Fold-Decrease in fH binding,[1],> 50 fold
B17,Fold-Decrease in fH binding,[4],0 fold
B18,Fold-Decrease in fH binding,[1],> 50 fold
B19,Fold-Decrease in fH binding,[1],> 50 fold
B20,Fold-Decrease in fH binding,[1],> 50 fold
B21,Fold-Decrease in fH binding,[1],> 50 fold
B22,Fold-Decrease in fH binding,[1],> 50 fold
B23,Fold-Decrease in fH binding,[2],0 fold
same,fold reduction in fH binding vs wildtype fHbp ID 22,[3],< 4 fold
B24,Fold-Decrease in fH binding,[2],0 fold
B25,Fold-Decrease in fH binding,[2],0 fold
same,fold reduction in fH binding vs wildtype fHbp ID 22,[3],< 4 fold
B26,Fold-Decrease in fH binding,[2],0 fold
same,fold reduction in fH binding vs wildtype fHbp ID 22,[3],< 4 fold
B27,Fold-Decrease in fH binding,[2],0 fold
B28,Fold-Decrease in fH binding,[2],0 fold
B29,binding result,[3],binds
